# Experimental data reported in paper PMC8269962 (Nature, 2021).
# Target: H3-I53_dn5B trimer (H3 HA ectodomain fused to the N terminus of I53_dn5B) (influenza A virus (H3N2))
# Assay: SEC
substance,measurement,value
H3-I53_dn5B trimer (H3 HA ectodomain fused to the N terminus of I53_dn5B),stoichiometry N,3
